In patent publication US20240116985A1, “STAPLED PEPTIDES AND METHODS THEREOF” (priority 2020, published 2024) one finds IC50 and EC50 data, which are given here for 14 molecules.

Starred links: 1 amine or outer side, 2 acyl side, 3 side chain; linkers in the order of their positions; H or OH if unused. Positions of bridges follow the written chain, without caps; N, C: chain ends. Non-standard residues stand in square brackets, D forms with d. Primed or numbered codes have the meaning given here. PyrS2″ = (S)-3-amino-1-((pent-4-en-1-yloxy)carbonyl)pyrrolidine-3-carboxylic acid (stapling residue), C=CCCCOC(=O)N1CC[C@@](N[*:1])(C(=O)[*:2])C1; B5(4) = 2,2-bis(4-pentenyl)glycine = 2-amino-2-(pent-4-en-1-yl)hept-6-enoic acid (stitching residue), C=CCCCC(CCCC=C)(N[*:1])C(=O)[*:2]; B5(8) = 2,2-bis(4-pentenyl)glycine (2-amino-2-(pent-4-en-1-yl)hept-6-enoic acid, stitching residue), C=CCCCC(CCCC=C)(N[*:1])C(=O)[*:2]; TfeGA = (S)-2-amino-3-((carboxymethyl)(2,2,2-trifluoroethyl)amino)propanoic acid, O=C([C@H](CN(CC(=O)[*:3])CC(F)(F)F)N[*:1])[*:2]; PyrS2 = (S)-3-amino-1-((pent-4-en-1-yloxy)carbonyl)pyrrolidine-3-carboxylic acid, C=CCCCOC(=O)N1CC[C@@](N[*:1])(C(=O)[*:2])C1; B5(12) = 2-amino-2-(pent-4-en-1-yl)hept-6-enoic acid (two olefin side chains), C=CCCCC(CCCC=C)(N[*:1])C(=O)[*:2]; PyrS2(5) = (S)-3-amino-1-((alkenyloxy)carbonyl)pyrrolidine-3-carboxylic acid, carbamate stapling residue; B5 = 2-amino-2-(pent-4-en-1-yl)hept-6-enoic acid, C=CCCCC(CCCC=C)(N[*:1])C(=O)[*:2]; Phe(3-COOH) = N[C@@H](Cc1cccc(C(=O)O)c1)C(=O)O; Phe(2-Cl) = N[C@@H](Cc1ccccc1Cl)C(=O)O; Bta = N[C@@H](Cc1csc2ccccc12)C(=O)O; αAllylPro = C=CC[C@@]1(C(=O)O)CCCN1; tBuAla = CC(C)(C)C[C@H](N)C(=O)O; 3Thi = N[C@@H](Cc1ccsc1)C(=O)O; Cit = NC(=O)NCCC[C@H](N)C(=O)O; S8 = C=CCCCCCC[C@](C)(N)C(=O)O; Nle = CCCC[C@H](N)C(=O)O; Aib = CC(C)(N)C(=O)O

The target in one assay is full-length beta-Catenin (Uniprot ID P35222) (Homo sapiens (Human)) (UniProt P35222). The assay is described as follows: fluorescence polarization competition; competitor 5FAM-TCF4 10-53. On the technique in general: Fluorescence polarisation rises when a labelled molecule tumbles more slowly, as on binding a larger partner.
Target sequence in this assay (P35222 whole entry, one chain of several): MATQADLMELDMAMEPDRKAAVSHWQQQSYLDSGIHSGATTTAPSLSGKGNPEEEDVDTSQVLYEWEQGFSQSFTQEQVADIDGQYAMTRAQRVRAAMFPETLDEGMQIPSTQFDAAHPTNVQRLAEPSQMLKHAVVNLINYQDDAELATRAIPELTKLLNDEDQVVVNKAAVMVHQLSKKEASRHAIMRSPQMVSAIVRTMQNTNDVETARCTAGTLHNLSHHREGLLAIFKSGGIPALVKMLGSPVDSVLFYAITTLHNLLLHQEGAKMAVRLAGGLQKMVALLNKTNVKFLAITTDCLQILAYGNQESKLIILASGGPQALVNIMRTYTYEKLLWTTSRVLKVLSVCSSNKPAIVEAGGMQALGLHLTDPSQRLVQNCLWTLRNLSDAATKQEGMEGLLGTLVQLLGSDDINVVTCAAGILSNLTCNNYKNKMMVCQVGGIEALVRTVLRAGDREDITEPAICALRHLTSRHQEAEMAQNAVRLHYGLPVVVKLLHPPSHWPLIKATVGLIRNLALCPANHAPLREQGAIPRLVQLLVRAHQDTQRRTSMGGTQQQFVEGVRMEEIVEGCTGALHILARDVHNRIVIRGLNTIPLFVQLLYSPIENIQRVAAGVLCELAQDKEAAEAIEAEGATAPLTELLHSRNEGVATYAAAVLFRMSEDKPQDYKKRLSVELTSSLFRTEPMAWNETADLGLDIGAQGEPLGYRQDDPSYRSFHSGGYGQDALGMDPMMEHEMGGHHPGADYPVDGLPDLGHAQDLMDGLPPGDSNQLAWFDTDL
Ac-[αAllylPro]D[tBuAla][B5]D[TfeGA]AGFT[PyrS2][Phe(2-Cl)][Bta]Q-NH2 (staple 1-4, 4-11) [I-1694] came in with an IC50 of 57 nM.

With Ac-[αAllylPro]D[tBuAla][B5]D[Phe(3-COOH)][Nle]GFL[PyrS2][Phe(2-Cl)][Bta]Q-NH2 (staple 1-4, 4-11) [I-1688], the IC50 came to 59 nM.

Molecule Ac-[αAllylPro]D[tBuAla][B5]D[Phe(3-COOH)][Aib]GFL[PyrS2][Phe(2-Cl)][Bta]Q-NH2 (staple 1-4, 4-11) [I-1689] had an IC50 of 25.5 nM.

Turning to Ac-[αAllylPro]D[tBuAla][B5]D[TfeGA][Aib]AFT[PyrS2][Phe(2-Cl)][Bta]Q-NH2 (staple 1-4, 4-11) [I-1693], the IC50 stood at 10 nM.

Turning to Ac-[αAllylPro]D[tBuAla][B5(4)]D[Phe(3-COOH)]AGFL[PyrS2(5)][Phe(2-Cl)][Bta]Q-NH2 (staple 1-4, 4-11) [I-1687], the half-inhibitory concentration (IC50) was found to be 42 nM.

A further assay shares this target. The assay is described as follows: FP competition vs 5FAM-TCF4(10-53), full-length beta-catenin.
Target sequence in this assay (P35222 2-781 limits assumed): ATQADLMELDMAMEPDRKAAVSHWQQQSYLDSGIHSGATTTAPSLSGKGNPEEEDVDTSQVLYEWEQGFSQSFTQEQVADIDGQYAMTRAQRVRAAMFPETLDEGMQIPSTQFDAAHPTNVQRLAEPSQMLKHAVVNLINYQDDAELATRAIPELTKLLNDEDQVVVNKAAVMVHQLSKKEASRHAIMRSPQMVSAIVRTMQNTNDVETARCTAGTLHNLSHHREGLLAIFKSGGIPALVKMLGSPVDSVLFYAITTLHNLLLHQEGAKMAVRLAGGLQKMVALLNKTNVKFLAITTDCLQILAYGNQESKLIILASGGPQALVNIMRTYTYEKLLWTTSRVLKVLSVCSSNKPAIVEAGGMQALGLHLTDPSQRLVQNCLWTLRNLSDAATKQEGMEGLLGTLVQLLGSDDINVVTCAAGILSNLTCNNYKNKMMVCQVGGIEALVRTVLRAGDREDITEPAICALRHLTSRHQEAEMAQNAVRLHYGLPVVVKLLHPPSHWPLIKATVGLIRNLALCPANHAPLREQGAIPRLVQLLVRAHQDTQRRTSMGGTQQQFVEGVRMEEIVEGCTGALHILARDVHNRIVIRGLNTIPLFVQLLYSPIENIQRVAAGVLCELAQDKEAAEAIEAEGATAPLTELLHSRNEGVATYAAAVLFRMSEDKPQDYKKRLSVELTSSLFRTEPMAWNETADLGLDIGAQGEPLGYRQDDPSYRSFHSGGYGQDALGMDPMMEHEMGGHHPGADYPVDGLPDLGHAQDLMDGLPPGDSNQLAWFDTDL
Ac-[αAllylPro]D[tBuAla][B5(12)]D[Cit]AAFN[PyrS2][3Thi][Bta]-NH2 (staple 1-4, 4-11) [I-861] displayed an IC50 of 40 nM. This counts as double-digit nanomolar.

Ac-[αAllylPro]D[tBuAla][B5(12)]DTAAFN[PyrS2][3Thi][Bta]-NH2 (staple 1-4, 4-11; also: later eluting staple isomer) [I-860] returned an IC50 of 61 nM. This IC50 lies about 1.5-fold higher than the previous one.

Ac-[αAllylPro]D[tBuAla][B5(12)]DLAAFN[PyrS2][3Thi][Bta]-NH2 (staple 1-4, 4-11) [I-862] displayed a half-maximal inhibitory concentration (IC50) of 123 nM.

For a further assay the target is unchanged. The assay is described as follows: fluorescence polarization competition; 10 nM full-length beta-catenin with 10 nM 5FAM-TCF4 (residues 10-53) probe as competitor.
Target sequence in this assay (P35222 2-781 limits assumed): as above
For Ac-[αAllylPro]D[tBuAla][B5(12)]D[Cit]AAFN[PyrS2][3Thi][Bta]-NH2 (staple 1-4, 4-11) [I-861], the EC50 was determined as 40 nM.

Ac-[αAllylPro]D[tBuAla][B5(12)]DTAAFN[PyrS2][3Thi][Bta]-NH2 (staple 1-4, 4-11; also: later eluting staple isomer) [I-860] had an EC50 of 61 nM.

In turn, Ac-[αAllylPro]D[tBuAla][B5(12)]DLAAFN[PyrS2][3Thi][Bta]-NH2 (staple 1-4, 4-11) [I-862] registered an EC50 of 123 nM.

The target is the same in a further assay. In words: fluorescence polarization competition; full-length beta-catenin; competitor displaced: 5FAM-TCF4 10-53.
Target sequence in this assay (P35222 2-781 limits assumed): as above
Ac-[αAllylPro]D[tBuAla][B5(8)]DEAAFN[PyrS2″][3Thi][Bta]H-NH2 (staple 1-4, 4-11) [I-697] had an IC50 of 5 nM.

Ac-[αAllylPro]D[tBuAla][B5(4)]DEAAFN[PyrS2″][3Thi][Bta]Q-NH2 (staple 1-4, 4-11; not fully specified) [I-690]: the IC50 was determined as 7 nM.

Ac-[αAllylPro]D[tBuAla][B5(4)]DEAAFN[PyrS2″]F[Bta]H-NH2 (staple 1-4, 4-11; not fully specified) [I-692] returned an IC50 of 9 nM.

The molecule Ac-[αAllylPro]D[tBuAla][B5(4)]DEAAFN[PyrS2″][3Thi][Bta]Q-NH2 (staple 1-4, 4-11; not fully specified) [I-691] came in with an IC50 of 9 nM.

Turning to Ac-[αAllylPro]D[tBuAla][B5(4)]DEAAFN[PyrS2″]F[Bta]H-NH2 (staple 1-4, 4-11; not fully specified) [I-693], the IC50 was determined as 12 nM.

As for Ac-[αAllylPro]DI[B5(8)]D[TfeGA]AAFN[S8][3Thi][Bta]Q-NH2 (staple 1-4, 4-11) [I-701], the IC50 worked out at 34 nM.

In a further assay the target is Bcat-Halo (beta-catenin HaloTag construct expressed in HEK293 cells) (UniProt P35222). In words: NanoBRET target engagement in HEK293 cells, absolute IC50; competitor TCF4-Luc. (In general: In BRET a luciferase serves as donor, and the signal depends on an acceptor being close.)
Bcat-Halo (beta-catenin HaloTag construct expressed in HEK293 cells), sequence (P35222 whole entry): as the sequence (P35222 whole entry, one chain of several) above
As to Ac-[αAllylPro]D[tBuAla][B5]D[TfeGA]AGFT[PyrS2][Phe(2-Cl)][Bta]Q-NH2 (staple 1-4, 4-11) [I-1694], the IC50 is 43600 nM.

Take Ac-[αAllylPro]D[tBuAla][B5]D[Phe(3-COOH)][Nle]GFL[PyrS2][Phe(2-Cl)][Bta]Q-NH2 (staple 1-4, 4-11) [I-1688]: the IC50 is 21500 nM.

In turn, Ac-[αAllylPro]D[tBuAla][B5]D[Phe(3-COOH)][Aib]GFL[PyrS2][Phe(2-Cl)][Bta]Q-NH2 (staple 1-4, 4-11) [I-1689] came in with an IC50 of 12500 nM.

Turning to Ac-[αAllylPro]D[tBuAla][B5]D[TfeGA][Aib]AFT[PyrS2][Phe(2-Cl)][Bta]Q-NH2 (staple 1-4, 4-11) [I-1693], the concentration for half-maximal inhibition (IC50) was 4600 nM.

In turn, Ac-[αAllylPro]D[tBuAla][B5(4)]D[Phe(3-COOH)]AGFL[PyrS2(5)][Phe(2-Cl)][Bta]Q-NH2 (staple 1-4, 4-11) [I-1687] displayed an IC50 of 18600 nM.

The target in another assay is full-length beta-Catenin (Uniprot ID P35222) (Homo sapiens (Human)) (UniProt P35222). The assay is described as follows: fluorescence polarization competition; full-length beta-catenin + 5FAM-TCF4(10-53) probe; peptide titrated.
Target sequence in this assay (P35222 2-781 limits assumed): as the sequence (P35222 2-781 limits assumed) above
On to Ac-[αAllylPro]D[tBuAla][B5(8)]DEAAFN[PyrS2″][3Thi][Bta]H-NH2 (staple 1-4, 4-11) [I-697], for which the EC50 was 5 nM.

Ac-[αAllylPro]D[tBuAla][B5(4)]DEAAFN[PyrS2″][3Thi][Bta]Q-NH2 (staple 1-4, 4-11; not fully specified) [I-690]: the EC50 was found to be 7 nM.

On to Ac-[αAllylPro]D[tBuAla][B5(4)]DEAAFN[PyrS2″]F[Bta]H-NH2 (staple 1-4, 4-11; not fully specified) [I-692], for which the EC50 turned out to be 9 nM.

For the molecule Ac-[αAllylPro]D[tBuAla][B5(4)]DEAAFN[PyrS2″][3Thi][Bta]Q-NH2 (staple 1-4, 4-11; not fully specified) [I-691], the EC50 amounted to 9 nM.

As to Ac-[αAllylPro]D[tBuAla][B5(4)]DEAAFN[PyrS2″]F[Bta]H-NH2 (staple 1-4, 4-11; not fully specified) [I-693], the EC50 was 12 nM.

As for Ac-[αAllylPro]DI[B5(8)]D[TfeGA]AAFN[S8][3Thi][Bta]Q-NH2 (staple 1-4, 4-11) [I-701], the EC50 was determined as 34 nM.

A further assay deals with Bcat-Halo (UniProt P35222). The assay is described as follows: NanoBRET in HEK293 cells (Bcat-Halo / TCF4-Luc), absolute IC50; competitor: TCF4-Luc.
Bcat-Halo, sequence (P35222 whole entry): as the sequence (P35222 whole entry, one chain of several) above
Ac-[αAllylPro]D[tBuAla][B5(8)]DEAAFN[PyrS2″][3Thi][Bta]H-NH2 (staple 1-4, 4-11) [I-697] returned an IC50 of 14700 nM. In other words, the double-digit micromolar range.

Regarding Ac-[αAllylPro]D[tBuAla][B5(4)]DEAAFN[PyrS2″][3Thi][Bta]Q-NH2 (staple 1-4, 4-11; not fully specified) [I-690], the IC50 was found to be 17800 nM.

Take Ac-[αAllylPro]D[tBuAla][B5(4)]DEAAFN[PyrS2″]F[Bta]H-NH2 (staple 1-4, 4-11; not fully specified) [I-692]: the IC50 worked out at 25600 nM.

With Ac-[αAllylPro]D[tBuAla][B5(4)]DEAAFN[PyrS2″][3Thi][Bta]Q-NH2 (staple 1-4, 4-11; not fully specified) [I-691], the IC50 amounted to 17000 nM.

Ac-[αAllylPro]D[tBuAla][B5(4)]DEAAFN[PyrS2″]F[Bta]H-NH2 (staple 1-4, 4-11; not fully specified) [I-693] registered an IC50 of 28500 nM.

In turn, Ac-[αAllylPro]DI[B5(8)]D[TfeGA]AAFN[S8][3Thi][Bta]Q-NH2 (staple 1-4, 4-11) [I-701] showed an IC50 of 18100 nM.

Usually IC50 stands for the concentration needed to halve the response being measured. Higher therefore signals weaker potency. A word on the EC50: it is the concentration needed to bring the measured effect to its halfway point.
